The target of assay [1] is T1, human TPBG protein, full-length, on the cell surface (human, UniProt Q13641 32-420).
T1 sequence (looked up): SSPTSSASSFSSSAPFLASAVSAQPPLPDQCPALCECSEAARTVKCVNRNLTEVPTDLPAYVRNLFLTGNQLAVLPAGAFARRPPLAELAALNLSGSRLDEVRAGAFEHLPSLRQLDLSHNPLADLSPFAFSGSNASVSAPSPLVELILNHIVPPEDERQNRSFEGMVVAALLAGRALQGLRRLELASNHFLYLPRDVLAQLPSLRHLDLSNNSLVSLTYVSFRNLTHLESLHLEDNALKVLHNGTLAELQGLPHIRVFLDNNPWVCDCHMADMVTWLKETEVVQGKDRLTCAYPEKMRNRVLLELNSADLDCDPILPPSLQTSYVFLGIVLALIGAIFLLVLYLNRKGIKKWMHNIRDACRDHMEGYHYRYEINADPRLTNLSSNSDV
Put plainly: cell-based or functional assay.

Assay [2] addresses T1, human TPBG protein, full-length, on the …. Put plainly: FACS on CHOK1-hTPBG cells.
Assay [3] concerns the target T2, mouse TPBG protein, full-length, on the cell surface (mouse, UniProt Q9Z0L0 32-426).
T2 construct: whole, on cells; also called mTPBG; CHOk1-mTPBG
T2 sequence (looked up): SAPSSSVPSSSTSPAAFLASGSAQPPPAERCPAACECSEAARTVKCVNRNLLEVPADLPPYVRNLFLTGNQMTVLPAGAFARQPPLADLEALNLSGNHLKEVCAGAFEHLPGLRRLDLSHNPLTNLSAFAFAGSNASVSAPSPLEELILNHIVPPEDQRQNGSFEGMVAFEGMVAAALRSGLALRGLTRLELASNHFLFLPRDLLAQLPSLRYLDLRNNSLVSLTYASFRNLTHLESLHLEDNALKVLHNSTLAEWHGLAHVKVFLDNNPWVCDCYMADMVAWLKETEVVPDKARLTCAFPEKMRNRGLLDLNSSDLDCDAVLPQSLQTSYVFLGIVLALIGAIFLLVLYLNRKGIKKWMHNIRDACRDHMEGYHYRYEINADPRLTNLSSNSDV
Put plainly: FACS on CHO-k1 cells with surface-expressed mouse TPBG, fluorescent secondary antibody, mean fluorescence intensity.

Assay [4] concerns the target T3, human TPBG antigen immobilized on a CM5 chip (human, UniProt Q13641 32-355, limits assumed).
T3 sequence (looked up): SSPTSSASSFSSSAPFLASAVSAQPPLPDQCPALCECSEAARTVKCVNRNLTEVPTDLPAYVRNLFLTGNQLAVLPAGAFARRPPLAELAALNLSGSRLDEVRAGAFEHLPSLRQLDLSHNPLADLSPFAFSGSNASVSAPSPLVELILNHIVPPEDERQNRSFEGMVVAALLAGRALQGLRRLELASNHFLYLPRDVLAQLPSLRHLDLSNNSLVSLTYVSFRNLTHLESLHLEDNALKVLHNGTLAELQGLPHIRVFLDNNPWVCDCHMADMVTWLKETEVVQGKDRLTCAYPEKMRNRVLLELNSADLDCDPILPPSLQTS
Put plainly: SPR (Biacore), human TPBG antigen immobilized on CM5 chip. How it is done: To assess the binding specificity and affinity of the humanized anti-TPBG antibody, Biacore analysis was performed using human TPBG antigen immobilized on a CM5 chip. Biacore technique utilizes the change in the refractive index of surface layer after antibody binding to the TPBG antigen immobilized on the surface layer. The binding was determined by surface plasmon resonance (SPR) through detecting the laser refracted from the surface. Non-specific and specific interactions were distinguished by analysis of signal kinetics binding rate and dissociation rate. Chimeric antibodies 12B12 and 28D4 were used as controls.
(SPR reads the build-up and loss of mass on a sensor chip optically.)

Assay [5] has as its target T4, human TPBG-hFc protein (human, UniProt Q13641 32-355).
T4 construct: range 32-355; Expressed in HEK293 cells, purified on protein A; also called immunogen A; hFc tagged TPBG protein; not shown: human IgG Fc fragment of the pCpC vector
T4 sequence (looked up): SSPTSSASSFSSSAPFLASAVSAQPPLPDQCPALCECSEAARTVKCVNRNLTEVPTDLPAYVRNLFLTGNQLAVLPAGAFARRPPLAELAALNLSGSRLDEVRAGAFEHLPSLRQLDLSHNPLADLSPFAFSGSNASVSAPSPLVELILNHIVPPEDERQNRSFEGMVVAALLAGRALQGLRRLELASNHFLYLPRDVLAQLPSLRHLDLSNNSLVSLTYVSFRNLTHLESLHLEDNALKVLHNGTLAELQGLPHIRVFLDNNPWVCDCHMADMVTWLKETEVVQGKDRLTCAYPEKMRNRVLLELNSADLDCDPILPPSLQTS
Put plainly: ELISA, coated human TPBG-hFc. How it is done:
The purified human TPBG-hFc obtained from step (1) diluting with PBS to a final concentration of 1.0 μg/mL was aliquoted into a 96-well ELISA plate at 100 μL per well, and sealed with a parafilm and incubated at 4° C. overnight. The plate was washed twice with plate washing buffer (PBS containing 0.01% (v/v) Tween 20), and blocked with blocking buffer (PBS containing 0.01% (v/v) Tween 20 and 1% (w/w) BSA) at room temperature for 2 h. The blocking buffer was discarded, and […] per well of the purified antibody TPBG was added. After incubating at 37° C. for 2 h, the plate was washed for three times with plate washing buffer (PBS containing 0.01% (v/v) Tween 20). HRP (horseradish peroxidase)-labeled secondary antibody (purchased from Sigma) was added and incubated at 37° C. for 2 h, and the plate was washed for three times using plate washing buffer (PBS containing 0.01% (v/v) Tween 20). 100 μL of TMB substrate was aliquoted into each well, incubated at room temperature for 30 min, and 100 μL of stop buffer (1.0 N HCl) per well was subsequently added. A_{450 nm} values were read using the ELISA plate reader (SpectraMax 384plus purchased from Molecular Device), and the results were shown in Table 5. […] In Table 5 the IgG control herein is a mice IgG control, the data in the Table are OD_{450 nm} values, and Blank represents the OD_{450 nm} value of PBS buffer in the plate.
The purified humanized TPBG antibody obtained from Embodiment 1 was reacted with human TPBG-hFc, for the method, see (5) Identification of lead antibody in Embodiment 1. The EC50 in Table 11 and Table 12 are calculated according to the OD450 nm value of the h12B12 variants and the h28D4 variants, respectively. […] FIGS. 7A and 7B are the binding reactions of purified humanized h12B12 variants to human TBPG-hFc protein, and FIGS. 8A and 8B are the binding reactions of the purified humanized h28D4 variants to human TBPG-hFc protein.
(In general: ELISA stands for enzyme-linked immunosorbent assay.)

In assay [6] the target is T5, cynomolgus TPBG protein, full-length, on the cell surface (cynomolgus, UniProt Q4R8Y9 35-420).
T5 construct: whole, on cells; also called cTPBG; CHOk1-cTPBG
T5 sequence (looked up): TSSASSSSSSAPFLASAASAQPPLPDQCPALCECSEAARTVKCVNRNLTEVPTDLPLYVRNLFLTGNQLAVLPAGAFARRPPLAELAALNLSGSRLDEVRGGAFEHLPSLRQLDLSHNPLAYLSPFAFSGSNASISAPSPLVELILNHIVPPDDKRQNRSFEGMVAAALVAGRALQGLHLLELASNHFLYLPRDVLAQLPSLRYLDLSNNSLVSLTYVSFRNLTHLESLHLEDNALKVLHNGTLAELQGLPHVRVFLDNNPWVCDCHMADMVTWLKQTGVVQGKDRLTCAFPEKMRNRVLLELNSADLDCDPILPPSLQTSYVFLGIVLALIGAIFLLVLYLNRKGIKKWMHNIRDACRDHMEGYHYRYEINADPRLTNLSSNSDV
Description: FACS on CHOK1-cTPBG cells.

The target of assay [7] is T1, human TPBG protein, full-length, on the …. Put plainly: cell-based or functional assay. The source holds these as a separate data set.

Like-named read-outs stand apart in the source and are kept apart here.

B1: Humanized Antibody 12B12-15-MMAF (antibody, V domains shown)
VH: EVQLVESGGGVVQPGRSLRLSCAASGFTFSNFGMHWVRQAPGKGLEWVAYISSGSTSFYYADTVKGRFTISRDNSKNTLYLQMNSLRAEDTAVYYCARTNSLLRGFFDAWGQGTTVTVSS
VL: DIVLTQTPLSLSVTPGQPASISCRASQSVSSSSYTYLHWYLQKPGQPPQLLIKSASNLESGVPDRFSGSGSGTDFTLKISRVEAEDVGVYYCQHSWEIPLTFGQGTKLEIK
modifications: MC-MMAF on cysteines reduced with TCEP (sites not given), DAR 3.0-5.0 per antibody
Turning to B1, the “IC50 of cell killing, NCI-H1568 cells (CellTiter-Glo, 5 days)” value (“IC50 of cell killing, NCI-H1568 cells” below) in assay [1] was determined as 58 pM.

B2: Chimeric antibody 28D4 (antibody, V domains shown)
VH: DVQLVESGGGLVRPGGSLKLSCAASGFTFSNYVMSWARQSPEKRLEWVAEISTGGSHTYYSDTVTGRFTISRDNAKKALYLEMSSLRSEDTAIYYCIMFYYGSSYSMDYWGQGTSVTVSS
VL: DIQMTQSTSSLSASLGDRITISCRASQDIRNYLNWYQQKPDGTVKLLIYHTSRLHSGVPSRFSGSGSGTDYSLTISNLEQEDIATYFCQQGDTLPLTFGAGTRLELK
notes: Mouse variable domains on human IgG1 heavy and human kappa light constant regions; also called c28D4; TPBG chimeric antibody 28D4
The term EC50 denotes the concentration needed to bring the measured effect to its halfway point. Lower therefore signals an effect from little substance. In general, Kd refers to the constant that tells how readily two partners part at equilibrium. Lower therefore signals a tighter complex. For orientation: koff means the rate constant with which the complex falls apart. Higher therefore signals a short-lived complex. As a reminder, the kon is the rate constant with which the complex forms. Take B2: the half-maximal effective concentration (EC50) in assay [2] was determined as 330 pM; in assay [5], 165 pM; in assay [6] it was 940 pM. For the same molecule, in assay [3], the binding result is given as “no binding (tested: 100 nM)”. This molecule also returned a Kd in assay [4] of 13 pM. In assay [4], the dissociation rate constant (koff) came out at 3.24e-05 s⁻¹. The same molecule showed a kon in assay [4] of 2.5e+06 M⁻¹ s⁻¹.

B3: Humanized Antibody 28D4-7-MMAF (antibody, V domains shown)
VH: EVQLVESGGGLVKPGGSLRLSCAASGFTFSNYVMSWIRQAPGKGLEWVAEISTGGSHTYYSDTVTGRFTISRDNAKKSLYLQMNSLRAEDTAVYYCIMFYYGSSYSMDYWGQGTTVTVSS
VL: DIQMTQSPSSLSASVGDRVTITCRASQDIRNYLNWYQQKPGKAPKLLIYHTSRLHSGVPSRFSGSGSGTDYTFTISSLQPEDIATYYCQQGDTLPLTFGQGTRLEIK
modifications: MC-MMAF on cysteines reduced with TCEP (sites not given), DAR 3.0-5.0 per antibody
On to B3, for which the “IC50 of cell killing, NCI-H1568 cells” value in assay [7] came to 66 pM.

B4: Humanized antibody 28D4-3 (antibody, V domains shown)
VH: EVQLVESGGGLVKPGGSLRLSCAASGFTFSNYVMSWIRQAPGKGLEWVAEISTGGSHTYYSDTVTGRFTISRDNAKKSLYLQMNSLRAEDTAVYYCIMFYYGSSYSMDYWGQGTTVTVSS
VL: DIQMTQSPSSLSASVGDRVTITCRASQDIRNYLNWYQQKPGKAPKLLIYHTSRLHSGVPSRFSGSGSGTDFTFTISSLQPEDIATYYCQQGDTLPLTFGQGTRLEIK
notes: also called h28D4-3
As to B4, the figures for the EC50 in assay [2], in assay [5] and in assay [6] were 260 pM, 160 pM and 620 pM, respectively. The binding result in assay [3] was “no binding (tested: 100 nM)”. Also, in assay [4], the Kd was 40.6 pM. For the same molecule, the koff in assay [4] worked out at 4.57e-05 s⁻¹. In assay [4], this molecule had a kon of 1.12e+06 M⁻¹ s⁻¹.

B5: Humanized antibody 28D4-7 (antibody, V domains shown)
VH: EVQLVESGGGLVKPGGSLRLSCAASGFTFSNYVMSWIRQAPGKGLEWVAEISTGGSHTYYSDTVTGRFTISRDNAKKSLYLQMNSLRAEDTAVYYCIMFYYGSSYSMDYWGQGTTVTVSS
VL: DIQMTQSPSSLSASVGDRVTITCRASQDIRNYLNWYQQKPGKAPKLLIYHTSRLHSGVPSRFSGSGSGTDYTFTISSLQPEDIATYYCQQGDTLPLTFGQGTRLEIK
notes: also called h28D4-7
In assay [2], B5 displayed a concentration giving a half-maximal response (EC50) of 370 pM. Also, in assay [3], the binding result was “no binding (tested: 100 nM)”. Moreover, in assay [4], the Kd stood at 25.6 pM, the koff is 9.42e-05 s⁻¹ and the kon was found to be 3.68e+06 M⁻¹ s⁻¹. The concentration for a half-maximal effect (EC50) in assay [5] came out at 161 pM. In assay [6], this molecule returned an EC50 of 270 pM.

B6: Humanized antibody 28D4-4 (antibody, V domains shown)
VH: EVQLVESGGGLVKPGGSLRLSCAASGFTFSNYVMSWARQAPGKRLEWVAEISTGGSHTYYSDTVTGRFTISRDNAKKSLYLQMNSLRAEDTAVYYCIMFYYGSSYSMDYWGQGTTVTVSS
VL: DIQMTQSPSSLSASVGDRVTITCRASQDIRNYLNWYQQKPGKAPKLLIYHTSRLHSGVPSRFSGSGSGTDFTFTISSLQPEDIATYYCQQGDTLPLTFGQGTRLEIK
notes: also called h28D4-4
B6 showed an EC50 in assay [2] of 380 pM. Further, the binding result in assay [3] was “no binding (tested: 100 nM)”. For the same molecule, in assay [4], binding was put at a Kd of 23.1 pM, the koff is 3.58e-05 s⁻¹ and the kon is 1.55e+06 M⁻¹ s⁻¹. Moreover, a half-maximal response in assay [5] (EC50) required 147 pM. In assay [6], this molecule returned a concentration giving a half-maximal response (EC50) of 720 pM.

B7: Chimeric Antibody 12B12-MMAF (antibody, V domains shown)
VH: DVQLVESGGGLVQPGGSRKLSCAASGFTFSNFGMHWVRQAPEKGLEWVAYISSGSTSFYYADTVKGRFTISRDNPKNTLFLQMTSLRSEDTAMYYCSRTNSLLRGFFDAWGAGTTVTVSS
VL: DIVLTQSPASLAVSLGQRATISCRASQSVSSSSYTYLHWYQQKPGQPPKLLIKSASNLESGVPARFSGTGSGTDFTLNIHPVEEEDTATYYCQHSWEIPLTFGAGTKLELK
modifications: MC-MMAF on cysteines reduced with TCEP (sites not given), DAR 3.0-5.0 per antibody
Consider B7, for which the “IC50 of cell killing, NCI-H1568 cells” value in assay [1] was found to be 63 pM.

The record behind these values is patent publication US20200062856A1 (XDCEXPLORER SHANGHAI, published 2020).
